The target in test [1] is human CD40 on cells (human) (UniProt P25942). The experiment in a line: FACS on human B cells (CD19+ gate), PE anti-human IgG Fc, MFI.
For test [2], the target named is human CD40-His protein (human) (UniProt P25942). The experiment in a line: ELISA on coated human CD40-His (1.0 ug/ml), anti-human IgG-HRP, OD450. A general note: An ELISA detects its analyte on a solid surface through an enzyme-linked reagent.
Test [3] has as its target human CD40 on cells (human) (UniProt P25942). Put plainly: FACS on Jurkat cells overexpressing human CD40, PE anti-human IgG, MFI.
For test [4] the target is unchanged. The test is described as above. This is another data set of the same source.

selicrelumab (antibody), sequence (VH): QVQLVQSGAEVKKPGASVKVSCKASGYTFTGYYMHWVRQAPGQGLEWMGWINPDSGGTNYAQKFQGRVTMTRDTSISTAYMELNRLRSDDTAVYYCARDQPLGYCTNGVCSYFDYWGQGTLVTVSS
selicrelumab (antibody), sequence (VL): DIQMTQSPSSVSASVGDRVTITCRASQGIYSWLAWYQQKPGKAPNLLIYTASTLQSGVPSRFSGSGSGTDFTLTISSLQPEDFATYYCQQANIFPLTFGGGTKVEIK
human CD40 on cells (human), sequence (P25942 21-277): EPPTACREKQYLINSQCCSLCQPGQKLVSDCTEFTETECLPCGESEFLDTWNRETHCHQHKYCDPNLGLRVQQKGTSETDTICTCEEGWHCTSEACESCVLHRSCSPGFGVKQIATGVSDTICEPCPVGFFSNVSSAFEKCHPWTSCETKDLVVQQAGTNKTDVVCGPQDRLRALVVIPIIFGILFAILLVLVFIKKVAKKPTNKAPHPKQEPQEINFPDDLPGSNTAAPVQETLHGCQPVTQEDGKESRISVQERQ
human CD40-His protein (human), sequence (P25942 21-193 limits assumed): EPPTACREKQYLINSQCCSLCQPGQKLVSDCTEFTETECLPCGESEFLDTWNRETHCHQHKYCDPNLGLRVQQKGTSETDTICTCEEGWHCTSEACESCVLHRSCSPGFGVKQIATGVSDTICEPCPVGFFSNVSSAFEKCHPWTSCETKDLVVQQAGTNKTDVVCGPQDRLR

In general, EC50 (read off the curve) refers to the concentration giving half of the maximal effect. Read a high EC50 (read off the curve) as a need for much substance. On to selicrelumab (antibody), for which the EC50 (read off the curve) in test [1] was determined as 1 nM; in test [2], 0.7 nM; in test [3] it was 1 nM; in test [4] it was 0.9 nM.
